From the nanobody polyreactivity screen of Harvey et al. (2022)

Assay: yeast display, Sf9 membrane polyspecificity reagent, FACS + sequencing; frameworks hold sequencing errors
Method in brief: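 Nanobodies came from a synthetic yeast display library in Saccharomyces cerevisiae BJ5465, induced with galactose for 36–48 hours and stained for 1 hour at 4 °C with 10% biotinylated, detergent-solubilized Sf9 membrane reagent. Cells were enriched on streptavidin microbeads and then FACS-sorted, with low and high (top ~1%) gates set on anti-HA fluorescence for expression and streptavidin fluorescence for reagent binding. Each polyreactivity label reflects the gate a clone came from. Genes were amplified by colony PCR, sequenced by MiSeq 2 × 250 and filtered by CDR length.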

Sequence | polyreactivity (PSR sort gate)
QVQLVESGGGLVQEGGSLRLSCAASGFTFYWYAMGWYRQAPGKERELVAAITRSGSSTYYADSVKGRFTISRDNAKNTVYLQMNSLKPEDTEVYYCAALPYKPYYDAYDYWGQGTQVTVSS | high polyreactivity
QVQLVESGGGLVQEGGSLRLSCAASGIIFRVYAMGWYRQAPGKERELVATITYSGGITYYADSVKGRFTISRVNAKNTVYLQMNSLKQEDTAGYYPIGVGGDYDYWGQGTQVSVSS | low polyreactivity
QVQLVESGGGLVQEGGSLRLSCAASGITFPDYAMGWYRQAPGKERELVAAISRGVNTYYADSVKGRFTISRDNAKNTVYLQMNSLKPEDTAVYYCNRRGSSGYDYWGLGTQVTVSS | low polyreactivity
QVQLVESGGGLVQEGGSLRLSCAASGITFTSYTMGWYRQAPGKERELVAAISSGGSTYYADSVKGRFTISRDNAKNTVYLQMNSLKPEDTAVYYCAAISYVFRMYYWGQGTQVTVSS | high polyreactivity
QVQLVESGGGLVQEGGSLRLSCAASGLIFPSYARGWYRPAPGKERELVAGINTGGSTNYADSVKGRFTISRDNAKNTVSLQMNSQKPEDTAVYYCAKDNNYYWYVSPRDYWGLGTQVTVSS | low polyreactivity
QVQLVESGGGLVQEGGSLRLSCAASGLTFYYYAMGWYRPAPGKERELVAAISRSGGSTYYADSVKGRFTISRDNAKITVYLQMNSLIPEDTAVYYCASRDHAGYYKYDYWGQGTQVTVSS | high polyreactivity
QVQLVESGGGLVQEGGSLRLSCAASGNIFTTYAMGWYRQAPGKERELVAAISRSGGRTNYADSVKGRFTISRDNAKNTVYLQMNSLKPEDTAVYYCNRALKPVDSYAYGYWGQGTQVTVSS | high polyreactivity
QVQLVESGGGLVQEGGSLRLSCAASGNMLGTYAMGWYILAPGIEREFVAAISSSVGSTYYADSVKGRFTISRDNAKNSVYLQMNILKPEDTAVYYCAARKYQIYEKWGYLYDYWGQGTQVTVSS | low polyreactivity
QVQLVESGGGLVQEGGSLRLSCAASGRIFRVYTMGWYRQAPGKERELVASITGRGGSTYYADSVKGRFTISRDNAKNTVYLQMNSLKPEDTAVYYCAAQTFRGFSEFDYWGQGTQVTLSS | high polyreactivity
QVQLVESGGGLVQEGGSLRLSCAASGRIFYNYPMGWYRQAPGKEREFVAAISGSGGSTYYADSVKGRFTISRDIAKNTVYLQMKSLKPEDTAVYYCSTSGPQYYSRNFDYWGQGTQVTVSS | low polyreactivity
QVQLVESGGGLVQEGGSLRLSCAASGRIIPSYAMGWYRQAPGKERELVAAISYSGASTYYADSVKGRFTISRDNAKNTVYLLMNCLKPEDTAVYYCATDHDSVRVLVSSTSDYDYWGQGTQVTVSS | low polyreactivity
QVQLVESGGGLVQEGGSLRLSCAASGRISTYYTMGWYRQAPGKERELVAAISWSGTSTYYADSVKGRFTISRDNAKNTVYLQMNSLKPEDTAVYYCNARWRYPLDSVTDDYWGQGTQVTVSS | high polyreactivity
QVQLVESGGGLVQEGGSLRLSCAASGRPFYNAMGWYRPAPGKERELVAGIRWSGASTYYADSVKGRFTISRDNAKNTVYLQMNSLKPEDTAVYYCAARRHSTRLRLTSDYWGHGTQVTVSS | high polyreactivity
QVQLVESGGGLVQEGGSLRLSCAASGRTFGYYAMGWYRQAPGKERELVAAITRNGGRTYYADSVKGRFTISRDNAKNTVYLQMNSLKPEDTAVYYCAKDQYKPEAFYYWGQGTQVTVSS | high polyreactivity
QVQLVESGGGLVQEGGSLRLSCAASGRTFPYTVMGWYRQAPGKERELVAGITGSGDSTFYADSVKGRFTISRDNAKNTVYIQMNSLKPEDTAVYYCAARYRTLNDGYIRIYWGQGTQVTVSS | low polyreactivity
QVQLVESGGGLVQEGGSLRLSCAASGRTFVSNAMGWYRQAPGKERELVAAIRYGGGRTYYADSVKGRFTISRDNAKNTVYLQMNSLKPEVTAVFYCAKRSVGGTGYYWGQGTQVTVSS | high polyreactivity

Sequence | polyreactivity (PSR sort gate)
QVQLVESGGGLVQEGGSLRLSCAASGSIFPLYDMGWYRQAPGKERELVAGISSGGSTNYADSVKGRFTISRDNAKNTVYLQMTSLKPEDTAVYYCAATGSSRYGYWGQGTQVTVSS | low polyreactivity
QVQLVESGGGLVQEGGSLRLSCAASGSIFTLYFMGWYRQAPGKERELVAAITWSGGSTYYADSVKGRFTISRDNAKNTVYLQMNSLKTEVTAVYYCNADVRWDSQDYYYWGQGTQVTVSS | low polyreactivity
QVQLVESGGGLVQEGGSLRLSCAASGSTFFTYAMGWYRQAPGKERELVAAISSSGGSTYYADSVKGRFTISRDNAKNTVYLQMNSLIPEDTAVDYCNAKLYLPYDPTDEYDYWGQGTQVTVSS | low polyreactivity
QVQLVESGGGLVQEGGSLRLSCAASGSTFLTYAMGWYRQAPGKERELVAGITRSGASTYYADSVKGRFTISRDNAKNTVYLQMNSLKTEDTAVYYCAATYISHFHRYYYWGQGTQVTVSS | high polyreactivity
QVQLVESGGGLVQEGGSLRLSCAASGSTFRFYAMGWYRQAPGKERELVAVISFNDGSTYYADSVTGRFTISRDNAKNTVYLQMNSLKPEDSAVYSCATDELDSWWNEYEYWGQGTQVTVSS | low polyreactivity
QVQLVESGGGLVQEGGSLRLSCAASGSTFSRYAMGWYRQAPGKERELVAAISSRGGSTYYADSVKGRFTISRDNAKNNVYLQMNSLKPEDTAVYYCNALTSYQNHVYPYDYWGQGTQVTVSS | high polyreactivity
QVQLVESGGGLVQEGGSLRLSCAASGSTFWVYVMGWYRPAAGKERELVAGISSRGGNTYYADSVKGRFTISRDKAKNSVYLQMNSLKPEDTAVYYCNAPYGGDYESARDYWGQGTQVTVSS | low polyreactivity
QVQLVESGGGLVQEGGSLRLSCAASGSTFYPNAMGWYRQAPGKERELVAAISSSGGSTYYADSVKGRFTISRDNAKNTVYLQMNSLKPEDTAVYYCNKRWFRDYDYWGPGTQVTVSS | high polyreactivity
QVQLVESGGGLVQEGGSLRLSCAASGSTFYWYAMGWYRQAPGKERELVATISNTGRTYYADSVKGRFTISRDNAKNTVYLQMNSLKPEDTAVYDCAAKRSQRWRYDYWGQGTQVTVSS | high polyreactivity
QVQLVESGGGLVQEGGSLRLSCAASGSTSQYNDMGWYRQAPGKERELVAAITNCGSTNYADSVKGRFTISRDNAKNTVYLQMNSLKPEDTAVYSCNADYGQERPGYGYGYWGQGTQVTVSS | low polyreactivity
QVQLVESGGGLVQEGGSLRLSCASSGITFYSNAMGWYRQAPGKERELVATITRGGSTYYADSVKGRFTISRDNAKTTVYLHMNSLKPEDTAVYYCAADYSYRGREYGYWGQGTQVTVSS | low polyreactivity
QVQLVESGGGLVQGGGSLRLSCAASGIIFFNNVMGWYRLAPGKERELVAAITFSGSSTYYADSVKGRFTISRDNAKNTVYLQMNSLKTEDTAVYYCAAYRSGHGIIDYDSWGQGTQVTVSS | low polyreactivity
QVQLVESGGGLVQGGGSLRLSCAASGINFRSYAMGRYRQAPGKERALVAAISWSGGSTYYADSVKGRFTISRDNAKNTVYLQMNSLKPDDTAVYYCAAKVRFSYGRGYDYWGQGTQVTVSS | high polyreactivity
QVQLVESGGGLVQGGGSLRLSCAASGRIFLRNAMGSYRQAPGKERELVATITSRGCSTYYADSVKGRFTISRDNAKNTVYLQMNSLKPEDTAVYYCAAYPEYVSGAWYDYWGQGTQVNVSS | low polyreactivity
QVQLVESGGGLVQGGGSLRLSCAASGRILYSYAMGWYRQAPGKERELVAAISWRGGPTYYADSVKGRFTISRDNAKNTVYLQLNSLKPEDTAVSNCAPEFYDHPWMYDYWGQGTQVTVSS | low polyreactivity
QVQLVESGGGLVQGGGSLRLSCAASGSNLQINAMGWYRQAPGKERELVAANDWGGGDTYYADSVKGRFTISRDNAKNTVYVQMISLKPEDTAVYYCAAEGVTWYLWDFYDIYGYWGQGTQVNVSS | high polyreactivity
